Assay results from patent publication US20220110936A1, “PHARMACEUTICAL COMPOSITION FOR TREATMENT OF NEURODEGENERATIVE DISEASES OR DISEASES CAUSED BY ABNORMALITY OF RNA BINDING PROTEIN AND APPLICATIONS THEREOF” (Shanghai Institute of Organic Chemistry, Chinese Academy of …, priority 2019, published 2022).

Tested on: hnRNP A1
Test: Immunoprecipitation/WB of hnRNP A1-Flag from HeLa cells with PARG added to the IP system
Type: biochemical, human
Protocol: The steps of HeLa cell culture and plasmid transfection are as described in Example 1. To increase the level of PARylation in HeLa cells after transfection with the plasmids described in 3.1.1, the cell culture medium was removed before collection, 500 μM hydrogen peroxide (diluted in PBS) was added to the cells followed by incubating for 10 min at 37° C. The stimulated HeLa cells can be used for subsequent experiments.
Cells treated according to 3.1.2 were lysed with the following lysis buffer: 25 mM Tris-HCl pH 7.4, 150 mM NaCl, 1% NP-40, 1 mM EDTA, 5% glycerol, protease inhibitor (Roche), 20 μM Olaparib (Selleck) and 8 μM ADP-HPD (Millopore). For enrichment of TDP-43 with HA tag, the lysate was added with HA antibody (Mouse anti-HA (Proteintech)) for overnight incubation at 4° C. followed by enrichment of primary antibody-sample complexes with Dynabeads® Protein G beads (Novex) for 2 hours at room temperature; for Flag-tagged hnRNP Al, the lysate was added directly to anti-FLAG® M2 Affinity Gel (Sigma) followed by incubation at 4° C. To ablate the polyribose moiety in vitro, 1μ purified PARG protein (Sigma) was added to a mixture of anti-FLAG® M2 Affinity Gel (Sigma) and cell lysate, and incubated for 1 h at 37° C. After incubation, the product was washed 3-5 times with lysis buffer, and added with 4×LDS sample buffer (Invitrogen) and boiled at 95° C. for subsequent studies. […]

B1: PARG protein: purified PARG protein (Sigma), poly(ADP-ribose) glycohydrolase (protein, UniProt Q86W56 1-976, looked up)
Poly(ADP-ribose) …: MNAGPGCEPCTKRPRWGAATTSPAASDARSFPSRQRRVLDPKDAHVQFRVPPSSPACVPGRAGQHRGSATSLVFKQKTITSWMDTKGIKTAESESLDSKENNNTRIESMMSSVQKDNFYQHNVEKLENVSQLSLDKSPTEKSTQYLNQHQTAAMCKWQNEGKHTEQLLESEPQTVTLVPEQFSNANIDRSPQNDDHSDTDSEENRDNQQFLTTVKLANAKQTTEDEQAREAKSHQKCSKSCDPGEDCASCQQDEIDVVPESPLSDVGSEDVGTGPKNDNKLTRQESCLGNSPPFEKESEPESPMDVDNSKNSCQDSEADEETSPGFDEQEDGSSSQTANKPSRFQARDADIEFRKRYSTKGGEVRLHFQFEGGESRTGMNDLNAKLPGNISSLNVECRNSKQHGKKDSKITDHFMRLPKAEDRRKEQWETKHQRTERKIPKYVPPHLSPDKKWLGTPIEEMRRMPRCGIRLPLLRPSANHTVTIRVDLLRAGEVPKPFPTHYKDLWDNKHVKMPCSEQNLYPVEDENGERTAGSRWELIQTALLNKFTRPQNLKDAILKYNVAYSKKWDFTALIDFWDKVLEEAEAQHLYQSILPDMVKIALCLPNICTQPIPLLKQKMNHSITMSQEQIASLLANAFFCTFPRRNAKMKSEYSSYPDINFNRLFEGRSSRKPEKLKTLFCYFRRVTEKKPTGLVTFTRQSLEDFPEWERCEKPLTRLHVTYEGTIEENGQGMLQVDFANRFVGGGVTSAGLVQEEIRFLINPELIISRLFTEVLDHNECLIITGTEQYSEYTGYAETYRWSRSHEDGSERDDWQRRCTEIVAIDALHFRRYLDQFVPEKMRRELNKAYCGFLRPGVSSENLSAVATGNWGCGAFGGDARLKALIQILAAAAAERDVVYFTFGDSELMRDIYSMHIFLTERKLTVGDVYKLLLRYYNEECRNCSTPGPDIKLYPFIYHAVESCAETADHSGQRTGT
For B1, the “amount of endogenous TDP-43 protein co-precipitated with hnRNP A1” value (added to the IP system) was “significantly reduced” and the “PARylation level of hnRNP A1 itself and PARylated proteins that interact with it” value (hydrogen peroxide-stimulated HeLa, added to the IP system for 1 h) was “significantly reduced”.
